B1: peptide HD2 (from tick evasin EVA4) / CCL18 (biotinylated, synthetic) (parent complex)
chain 1: EEDDYTAYAPLTCYFT
chain 2: AQVGTNKELCCLVYTSWQIPQKFIVDYSETSPQCPKPGVILLTKRGRQICADPNKKWVQKYISDLKLNA

Variants of: B1
In the case of chain 1 Y14F, the enrichment is reported as 0.0351 log2 (difference from the parental peptide).
With chain 1 P10L the enrichment was -9.7 log2 (difference from the parental peptide).
In the case of chain 1 E1Y, the enrichment is reported as -1.67 log2 (difference from the parental peptide).
With chain 1 T6W the enrichment was 0.931 log2 (difference from the parental peptide).
In the case of chain 1 A9F, the enrichment is reported as -8.36 log2 (difference from the parental peptide).
For chain 1 T16L, the enrichment was 0.179 log2 (difference from the parental peptide).
In the case of chain 1 Y8Q, the enrichment is reported as -6.56 log2 (difference from the parental peptide).
In the case of chain 1 E1P, the enrichment is reported as -2.16 log2 (difference from the parental peptide).
With chain 1 C13R the enrichment was -9.16 log2 (difference from the parental peptide).
chain 1 A7Q was tested, and the enrichment was 2.05 log2 (difference from the parental peptide).
For chain 1 E1R, the enrichment was -3.04 log2 (difference from the parental peptide).
chain 1 D3L was tested, and the enrichment was -2.02 log2 (difference from the parental peptide).
For chain 1 Y14S, the enrichment was -3.46 log2 (difference from the parental peptide).
For chain 1 D4R, the enrichment was -2.64 log2 (difference from the parental peptide).
For chain 1 Y8G, the enrichment was -6.32 log2 (difference from the parental peptide).
In the case of chain 1 C13N, the enrichment is reported as -8.4 log2 (difference from the parental peptide).
For chain 1 Y5I, the enrichment was -3.26 log2 (difference from the parental peptide).
In the case of chain 1 F15P, the enrichment is reported as -0.512 log2 (difference from the parental peptide).
For chain 1 E1L, the enrichment was -1.91 log2 (difference from the parental peptide).
With chain 1 E2K the enrichment was -3.34 log2 (difference from the parental peptide).
In the case of chain 1 P10V, the enrichment is reported as -8.99 log2 (difference from the parental peptide).
In the case of chain 1 D3R, the enrichment is reported as -3.26 log2 (difference from the parental peptide).
In the case of chain 1 A7I, the enrichment is reported as -0.489 log2 (difference from the parental peptide).
In the case of chain 1 L11S, the enrichment is reported as -0.148 log2 (difference from the parental peptide).
chain 1 D4I was tested, and the enrichment was -2.18 log2 (difference from the parental peptide).
In the case of chain 1 D4V, the enrichment is reported as -3.19 log2 (difference from the parental peptide).
In the case of chain 1 A9M, the enrichment is reported as -4.18 log2 (difference from the parental peptide).
For chain 1 T16A, the enrichment was 1.23 log2 (difference from the parental peptide).
With chain 1 Y5V the enrichment was -3.13 log2 (difference from the parental peptide).
chain 1 T16G was tested, and the enrichment was 1.32 log2 (difference from the parental peptide).
With chain 1 T6S the enrichment was 2.9 log2 (difference from the parental peptide).
For chain 1 D3A, the enrichment was -0.703 log2 (difference from the parental peptide).
For chain 1 T16Q, the enrichment was 1.05 log2 (difference from the parental peptide).
chain 1 A9N was tested, and the enrichment was -5.05 log2 (difference from the parental peptide).
chain 1 E2D was tested, and the enrichment was -0.0115 log2 (difference from the parental peptide).
chain 1 T16H was tested, and the enrichment was -0.148 log2 (difference from the parental peptide).
For chain 1 A9Q, the enrichment was -0.732 log2 (difference from the parental peptide).
In the case of chain 1 E1M, the enrichment is reported as -0.0267 log2 (difference from the parental peptide).
For chain 1 T12C, the enrichment was -7.25 log2 (difference from the parental peptide).
chain 1 D4G was tested, and the enrichment was -2.83 log2 (difference from the parental peptide).
With chain 1 D3G the enrichment was -0.0296 log2 (difference from the parental peptide).
In the case of chain 1 C13Q, the enrichment is reported as -9.57 log2 (difference from the parental peptide).
For chain 1 C13T, the enrichment was -9.42 log2 (difference from the parental peptide).
chain 1 A7L was tested, and the enrichment was 0.189 log2 (difference from the parental peptide).
In the case of chain 1 Y5A, the enrichment is reported as -4.1 log2 (difference from the parental peptide).
In the case of chain 1 Y8S, the enrichment is reported as -2.05 log2 (difference from the parental peptide).
For chain 1 Y14V, the enrichment was -1.51 log2 (difference from the parental peptide).
With chain 1 A9K the enrichment was -2.18 log2 (difference from the parental peptide).
In the case of chain 1 T12L, the enrichment is reported as 0.858 log2 (difference from the parental peptide).
With chain 1 A9L the enrichment was -7.81 log2 (difference from the parental peptide).
In the case of chain 1 Y14C, the enrichment is reported as -8.51 log2 (difference from the parental peptide).
chain 1 Y5N was tested, and the enrichment was -4 log2 (difference from the parental peptide).
In the case of chain 1 D4Q, the enrichment is reported as -1.98 log2 (difference from the parental peptide).
chain 1 L11M was tested, and the enrichment was 2.39 log2 (difference from the parental peptide).
For chain 1 A9I, the enrichment was -10.2 log2 (difference from the parental peptide).
For chain 1 E1K, the enrichment was -3.68 log2 (difference from the parental peptide).
For chain 1 E2R, the enrichment was -3.87 log2 (difference from the parental peptide).
With chain 1 A7D the enrichment was 1.19 log2 (difference from the parental peptide).
For chain 1 Y5M, the enrichment was -0.412 log2 (difference from the parental peptide).
For chain 1 A9C, the enrichment was -10.3 log2 (difference from the parental peptide).
With chain 1 Y5R the enrichment was -6.25 log2 (difference from the parental peptide).
With chain 1 T16R the enrichment was -1.37 log2 (difference from the parental peptide).
chain 1 E1N was tested, and the enrichment was -0.496 log2 (difference from the parental peptide).
For chain 1 L11A, the enrichment was 0.458 log2 (difference from the parental peptide).
With chain 1 F15C the enrichment was -5.58 log2 (difference from the parental peptide).
In the case of chain 1 F15L, the enrichment is reported as 0.128 log2 (difference from the parental peptide).
For chain 1 Y8H, the enrichment was -6.18 log2 (difference from the parental peptide).
With chain 1 T12R the enrichment was -2.9 log2 (difference from the parental peptide).
In the case of chain 1 T6R, the enrichment is reported as 0.592 log2 (difference from the parental peptide).
In the case of chain 1 P10N, the enrichment is reported as -8.22 log2 (difference from the parental peptide).
With chain 1 T6A the enrichment was 1.9 log2 (difference from the parental peptide).
With chain 1 T12Y the enrichment was 0.868 log2 (difference from the parental peptide).
In the case of chain 1 P10G, the enrichment is reported as -8.83 log2 (difference from the parental peptide).
With chain 1 Y14K the enrichment was -6.36 log2 (difference from the parental peptide).
For chain 1 A7K, the enrichment was 1.7 log2 (difference from the parental peptide).

From paper PMC11969024 (2025)
